The data set addresses T1, HsSPT2 WT (Homo sapiens, UniProt Q68D10 1-685).
T1 sequence: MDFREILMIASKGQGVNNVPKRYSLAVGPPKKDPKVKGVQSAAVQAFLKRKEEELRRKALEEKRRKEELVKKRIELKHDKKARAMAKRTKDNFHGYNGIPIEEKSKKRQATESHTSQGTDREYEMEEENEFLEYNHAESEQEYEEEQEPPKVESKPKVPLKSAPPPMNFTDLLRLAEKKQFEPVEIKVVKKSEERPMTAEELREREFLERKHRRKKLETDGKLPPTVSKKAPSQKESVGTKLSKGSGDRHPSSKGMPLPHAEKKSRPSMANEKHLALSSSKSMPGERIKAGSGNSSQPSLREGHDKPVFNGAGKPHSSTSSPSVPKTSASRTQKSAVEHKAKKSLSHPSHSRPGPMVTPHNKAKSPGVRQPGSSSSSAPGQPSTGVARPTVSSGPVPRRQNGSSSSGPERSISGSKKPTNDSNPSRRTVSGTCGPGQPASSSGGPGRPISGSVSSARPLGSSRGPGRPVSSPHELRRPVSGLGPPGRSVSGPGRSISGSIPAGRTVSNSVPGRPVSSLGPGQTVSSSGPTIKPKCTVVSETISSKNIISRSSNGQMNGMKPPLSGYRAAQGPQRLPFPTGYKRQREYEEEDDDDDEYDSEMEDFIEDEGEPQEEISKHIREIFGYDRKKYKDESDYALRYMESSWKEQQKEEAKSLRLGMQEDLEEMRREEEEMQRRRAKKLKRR
The data set can be described thus: EMSA; 1 mM EDTA; 10 nM DNA; 25 mM Tris-HCl pH 8.0, 55 mM NaCl, 1 mM EDTA, 1 mM DTT, 0.1 mg/ml BSA, 1% glycerol, 37 C 15 min; native 8% PAGE. The conditions noted are these: protein: recombinant; tags: His6; label: 5'-32P; four-way junction of 4 x 40 nt strands, each arm 20 bp. For orientation: Mobility shift assays separate free from complexed probe on a gel.

B1: synthetic cruciform DNA (four-way Holliday junction J3b/J3h/J3r/J3x(40)) (structured_DNA)
DNA 1: AGGGATCCGTCCTAGCAAGGGGCTGCTACCGGAAGCTTAC
DNA 2: GTAAGCTTCCGGTAGCAGCCTGAGCGGTGGTTGAATTCAC
DNA 3: GTGAATTCAACCACCGCTCAACTCAACTGCAGTCTAGAAC
DNA 4: GTTCTAGACTGCAGTTGAGTCCTTGCTAGGACGGATCCCT
Turning to B1, the binding result is on record as “binds”.
